Source: patent US20140087995A1 (published 2014)
Numbered stars: 1 amine (or outer) side, 2 acyl side, 3 side chain; on linkers, the order of the positions; unused ones are H or OH. Bridge positions count the residues as written; N and C are the ends. Side chains are listed from the residue outwards. Ends that are not written are not given here. * marks the point of attachment. C20 diacid = O=C(O)CCCCCCCCCCCCCCCCCCC(=O)*; γGlu = O=C(O)[C@H](CCC(=O)[*:2])N[*:1]

T1: human amylin receptor (Amylin 3(a) receptor: human calcitonin receptor co-expressed with RAMP-3) (human, UniProt P30988 25-474; O60896 24-148, limits assumed)
T1 construct: whole, on cells; Used as cell membranes prepared from the Amylin 3(a)/CRE-luc BHK cells (Assay V); the complex is called the human amylin receptor; also called hAmylin-R; hAmylinR
T1 sequence (looked up) 1: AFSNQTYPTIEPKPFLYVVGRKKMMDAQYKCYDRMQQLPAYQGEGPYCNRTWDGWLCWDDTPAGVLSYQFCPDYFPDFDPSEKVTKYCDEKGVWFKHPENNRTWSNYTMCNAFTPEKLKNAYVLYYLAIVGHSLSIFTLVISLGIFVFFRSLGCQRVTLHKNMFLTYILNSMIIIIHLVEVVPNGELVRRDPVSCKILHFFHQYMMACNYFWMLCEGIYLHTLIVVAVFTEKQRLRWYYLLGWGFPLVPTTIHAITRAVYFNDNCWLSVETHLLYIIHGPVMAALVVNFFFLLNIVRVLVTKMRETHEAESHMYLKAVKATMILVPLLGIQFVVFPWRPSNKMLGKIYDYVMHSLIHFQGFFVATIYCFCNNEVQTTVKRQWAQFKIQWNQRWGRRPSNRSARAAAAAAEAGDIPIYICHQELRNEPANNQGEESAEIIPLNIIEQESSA
T1 sequence (looked up) 2: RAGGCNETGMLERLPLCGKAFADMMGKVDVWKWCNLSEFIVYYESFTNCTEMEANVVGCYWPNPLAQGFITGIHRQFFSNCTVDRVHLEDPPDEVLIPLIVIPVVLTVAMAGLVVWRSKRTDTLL

B1: N^ε1-[(4S)-4-carboxy-4-(19-carboxynonadecanoylamino)butanoyl]-[Glu14,Arg17,Pro21,Pro27,His34,Glu35]-h-amylin (peptide)
peptide: K([γGlu-C20 diacid])CNTATCATQRLAEFLRHSSPNFGAIPSSTNVGHETY-NH2
modifications: disulfide 2-7; N-terminus assumed
SMILES: CC[C@H](C)[C@H](NC(=O)[C@H](C)NC(=O)CNC(=O)[C@H](Cc1ccccc1)NC(=O)[C@H](CC(N)=O)NC(=O)[C@@H]1CCCN1C(=O)[C@H](CO)NC(=O)[C@H](CO)NC(=O)[C@H](Cc1c[nH]cn1)NC(=O)[C@H](CCCNC(=N)N)NC(=O)[C@H](CC(C)C)NC(=O)[C@H](Cc1ccccc1)NC(=O)[C@H](CCC(=O)O)NC(=O)[C@H](C)NC(=O)[C@H](CC(C)C)NC(=O)[C@H](CCCNC(=N)N)NC(=O)[C@H](CCC(N)=O)NC(=O)[C@@H](NC(=O)[C@H](C)NC(=O)[C@@H]1CSSC[C@H](NC(=O)[C@@H](N)CCCCNC(=O)CC[C@H](NC(=O)CCCCCCCCCCCCCCCCCCC(=O)O)C(=O)O)C(=O)N[C@@H](CC(N)=O)C(=O)N[C@@H]([C@@H](C)O)C(=O)N[C@@H](C)C(=O)N[C@@H]([C@@H](C)O)C(=O)N1)[C@@H](C)O)C(=O)N1CCC[C@H]1C(=O)N[C@@H](CO)C(=O)N[C@@H](CO)C(=O)N[C@H](C(=O)N[C@@H](CC(N)=O)C(=O)N[C@H](C(=O)NCC(=O)N[C@@H](Cc1c[nH]cn1)C(=O)N[C@@H](CCC(=O)O)C(=O)N[C@H](C(=O)N[C@@H](Cc1ccc(O)cc1)C(N)=O)[C@@H](C)O)C(C)C)[C@@H](C)O
notes: modifications are with respect to human amylin; also called compound 107
B2: N^ε1-[(4S)-4-carboxy-4-[[(4S)-4-carboxy-4-(19-carboxynonadecanoylamino)butanoyl]amino]butanoyl]-[Asp14,Arg17,Pro21,Pro27,Pro34,Glu35]-h-amylin (peptide)
peptide: K([γGlu-γGlu-C20 diacid])CNTATCATQRLADFLRHSSPNFGAIPSSTNVGPETY-NH2
modifications: disulfide 2-7
notes: modifications are with respect to human amylin
B3: N^ε1-[(4S)-4-carboxy-4-(19-carboxynonadecanoylamino)butanoyl]-[Glu14,Arg17,Pro21,Pro27,Pro34,His35]-h-amylin (peptide)
peptide: K([γGlu-C20 diacid])CNTATCATQRLAEFLRHSSPNFGAIPSSTNVGPHTY-NH2
modifications: disulfide 2-7
notes: as for B2
B4: N^ε1-[(4S)-4-carboxy-4-[[(4S)-4-carboxy-4-(19-carboxynonadecanoylamino)butanoyl]amino]butanoyl]-[Arg17,Pro21,Pro27,Pro31,Pro34,Arg35]-h-amylin (peptide)
peptide: K([γGlu-γGlu-C20 diacid])CNTATCATQRLANFLRHSSPNFGAIPSSTPVGPRTY-NH2
modifications: disulfide 2-7; N-terminus assumed
SMILES: CC[C@H](C)[C@H](NC(=O)[C@H](C)NC(=O)CNC(=O)[C@H](Cc1ccccc1)NC(=O)[C@H](CC(N)=O)NC(=O)[C@@H]1CCCN1C(=O)[C@H](CO)NC(=O)[C@H](CO)NC(=O)[C@H](Cc1c[nH]cn1)NC(=O)[C@H](CCCNC(=N)N)NC(=O)[C@H](CC(C)C)NC(=O)[C@H](Cc1ccccc1)NC(=O)[C@H](CC(N)=O)NC(=O)[C@H](C)NC(=O)[C@H](CC(C)C)NC(=O)[C@H](CCCNC(=N)N)NC(=O)[C@H](CCC(N)=O)NC(=O)[C@@H](NC(=O)[C@H](C)NC(=O)[C@@H]1CSSC[C@H](NC(=O)[C@@H](N)CCCCNC(=O)CC[C@H](NC(=O)CC[C@H](NC(=O)CCCCCCCCCCCCCCCCCCC(=O)O)C(=O)O)C(=O)O)C(=O)N[C@@H](CC(N)=O)C(=O)N[C@@H]([C@@H](C)O)C(=O)N[C@@H](C)C(=O)N[C@@H]([C@@H](C)O)C(=O)N1)[C@@H](C)O)C(=O)N1CCC[C@H]1C(=O)N[C@@H](CO)C(=O)N[C@@H](CO)C(=O)N[C@H](C(=O)N1CCC[C@H]1C(=O)N[C@H](C(=O)NCC(=O)N1CCC[C@H]1C(=O)N[C@@H](CCCNC(=N)N)C(=O)N[C@H](C(=O)N[C@@H](Cc1ccc(O)cc1)C(N)=O)[C@@H](C)O)C(C)C)[C@@H](C)O
notes: as for B2
B5: N^ε1-[(4S)-4-carboxy-4-(19-carboxynonadecanoylamino)butanoyl]-[His14,Arg17,Pro21,Pro27,Pro31,Pro34]-h-amylin (peptide)
peptide: K([γGlu-C20 diacid])CNTATCATQRLAHFLRHSSPNFGAIPSSTPVGPNTY-NH2
modifications: disulfide 2-7; N-terminus assumed
SMILES: CC[C@H](C)[C@H](NC(=O)[C@H](C)NC(=O)CNC(=O)[C@H](Cc1ccccc1)NC(=O)[C@H](CC(N)=O)NC(=O)[C@@H]1CCCN1C(=O)[C@H](CO)NC(=O)[C@H](CO)NC(=O)[C@H](Cc1c[nH]cn1)NC(=O)[C@H](CCCNC(=N)N)NC(=O)[C@H](CC(C)C)NC(=O)[C@H](Cc1ccccc1)NC(=O)[C@H](Cc1c[nH]cn1)NC(=O)[C@H](C)NC(=O)[C@H](CC(C)C)NC(=O)[C@H](CCCNC(=N)N)NC(=O)[C@H](CCC(N)=O)NC(=O)[C@@H](NC(=O)[C@H](C)NC(=O)[C@@H]1CSSC[C@H](NC(=O)[C@@H](N)CCCCNC(=O)CC[C@H](NC(=O)CCCCCCCCCCCCCCCCCCC(=O)O)C(=O)O)C(=O)N[C@@H](CC(N)=O)C(=O)N[C@@H]([C@@H](C)O)C(=O)N[C@@H](C)C(=O)N[C@@H]([C@@H](C)O)C(=O)N1)[C@@H](C)O)C(=O)N1CCC[C@H]1C(=O)N[C@@H](CO)C(=O)N[C@@H](CO)C(=O)N[C@H](C(=O)N1CCC[C@H]1C(=O)N[C@H](C(=O)NCC(=O)N1CCC[C@H]1C(=O)N[C@@H](CC(N)=O)C(=O)N[C@H](C(=O)N[C@@H](Cc1ccc(O)cc1)C(N)=O)[C@@H](C)O)C(C)C)[C@@H](C)O
notes: as for B2
B6: N^ε1-[(4S)-4-carboxy-4-(19-carboxynonadecanoylamino)butanoyl]-[Glu14,Arg17,Pro21,Pro27,Pro34,Arg35]-h-amylin (peptide)
peptide: K([γGlu-C20 diacid])CNTATCATQRLAEFLRHSSPNFGAIPSSTNVGPRTY-NH2
modifications: disulfide 2-7; N-terminus assumed
SMILES: CC[C@H](C)[C@H](NC(=O)[C@H](C)NC(=O)CNC(=O)[C@H](Cc1ccccc1)NC(=O)[C@H](CC(N)=O)NC(=O)[C@@H]1CCCN1C(=O)[C@H](CO)NC(=O)[C@H](CO)NC(=O)[C@H](Cc1c[nH]cn1)NC(=O)[C@H](CCCNC(=N)N)NC(=O)[C@H](CC(C)C)NC(=O)[C@H](Cc1ccccc1)NC(=O)[C@H](CCC(=O)O)NC(=O)[C@H](C)NC(=O)[C@H](CC(C)C)NC(=O)[C@H](CCCNC(=N)N)NC(=O)[C@H](CCC(N)=O)NC(=O)[C@@H](NC(=O)[C@H](C)NC(=O)[C@@H]1CSSC[C@H](NC(=O)[C@@H](N)CCCCNC(=O)CC[C@H](NC(=O)CCCCCCCCCCCCCCCCCCC(=O)O)C(=O)O)C(=O)N[C@@H](CC(N)=O)C(=O)N[C@@H]([C@@H](C)O)C(=O)N[C@@H](C)C(=O)N[C@@H]([C@@H](C)O)C(=O)N1)[C@@H](C)O)C(=O)N1CCC[C@H]1C(=O)N[C@@H](CO)C(=O)N[C@@H](CO)C(=O)N[C@H](C(=O)N[C@@H](CC(N)=O)C(=O)N[C@H](C(=O)NCC(=O)N1CCC[C@H]1C(=O)N[C@@H](CCCNC(=N)N)C(=O)N[C@H](C(=O)N[C@@H](Cc1ccc(O)cc1)C(N)=O)[C@@H](C)O)C(C)C)[C@@H](C)O
notes: as for B2
B7: N^ε1-[(4S)-4-carboxy-4-[[(4S)-4-carboxy-4-(19-carboxynonadecanoylamino)butanoyl]amino]butanoyl]-[Asp14,Arg17,Pro21,Pro27,Pro34,Arg35]-h-amylin (peptide)
peptide: K([γGlu-γGlu-C20 diacid])CNTATCATQRLADFLRHSSPNFGAIPSSTNVGPRTY-NH2
modifications: disulfide 2-7
notes: modifications are with respect to human amylin; also called compound 130
B8: N^ε1-[(4S)-4-carboxy-4-(19-carboxynonadecanoylamino)butanoyl]-[Glu14,Arg17,Pro21,Pro27,His35]-h-amylin (peptide)
peptide: K([γGlu-C20 diacid])CNTATCATQRLAEFLRHSSPNFGAIPSSTNVGSHTY-NH2
modifications: disulfide 2-7; N-terminus assumed
SMILES: CC[C@H](C)[C@H](NC(=O)[C@H](C)NC(=O)CNC(=O)[C@H](Cc1ccccc1)NC(=O)[C@H](CC(N)=O)NC(=O)[C@@H]1CCCN1C(=O)[C@H](CO)NC(=O)[C@H](CO)NC(=O)[C@H](Cc1c[nH]cn1)NC(=O)[C@H](CCCNC(=N)N)NC(=O)[C@H](CC(C)C)NC(=O)[C@H](Cc1ccccc1)NC(=O)[C@H](CCC(=O)O)NC(=O)[C@H](C)NC(=O)[C@H](CC(C)C)NC(=O)[C@H](CCCNC(=N)N)NC(=O)[C@H](CCC(N)=O)NC(=O)[C@@H](NC(=O)[C@H](C)NC(=O)[C@@H]1CSSC[C@H](NC(=O)[C@@H](N)CCCCNC(=O)CC[C@H](NC(=O)CCCCCCCCCCCCCCCCCCC(=O)O)C(=O)O)C(=O)N[C@@H](CC(N)=O)C(=O)N[C@@H]([C@@H](C)O)C(=O)N[C@@H](C)C(=O)N[C@@H]([C@@H](C)O)C(=O)N1)[C@@H](C)O)C(=O)N1CCC[C@H]1C(=O)N[C@@H](CO)C(=O)N[C@@H](CO)C(=O)N[C@H](C(=O)N[C@@H](CC(N)=O)C(=O)N[C@H](C(=O)NCC(=O)N[C@@H](CO)C(=O)N[C@@H](Cc1c[nH]cn1)C(=O)N[C@H](C(=O)N[C@@H](Cc1ccc(O)cc1)C(N)=O)[C@@H](C)O)C(C)C)[C@@H](C)O
notes: as for B2

biological target: T1, human amylin receptor (Amylin 3(a) …); experiment: SPA competition binding, displacement of 125I-rat amylin from membranes of BHK cells with human calcitonin receptor + RAMP-3 (Assay V)
Experimental: The binding assay was performed using scintillation proximity assay (SPA) beads (RPNQ0001) from PerkinElmer and cell membranes from the Amylin 3(a)/CRE-luc cells (as described in Assay (II)) were used. Membranes were prepared in the following way; the cells were rinsed with PBS and incubated with Versene for approximately 5 min before harvesting. The cells were flushed with PBS and the cell-suspension was centrifuged for 5 min at 1000 rpm. Cells were homogenized (ultrathurrax) in a buffer containing 20 mM Na-HEPES and 10 mM EDTA (pH 7.4) and centrifuged at 20.000 rpm for 15 min. The resulting pellet was resuspended, homogenized and centrifuged (20.000 rpm, 15 min) in a buffer containing 20 mM Na-HEPES and 0.1 mM EDTA (pH 7.4, buffer 2). The resulting pellet was resuspended in buffer 2 and protein concentration was measured (BCA protein Assay, Pierce). The homogenate was kept cold during the whole procedure. The membranes were kept at −80° C. until use. The assay was performed in a 384 well Optiplate (PerkinElmer) in a total volume of 40 ul. Membranes were mixed with SPA beads. Final concentration of membranes 35 ng/μL final and SPA beads was 0.05 mg/well. Test-compounds were dissolved in DMSO and further diluted in assay buffer (50 mM Hepes, pH 7.4, 1 mM CaCl2, 5 mM MgCl₂, 0.1% OA and 0.02% Tween20). […] The final mixture was incubated with shaking at 400 rpm for 120 min at 25° C. prior to centrifugation (1500 rpm, 10 min). Samples were analyzed on TopCounter™ (Packard). The IC₅₀ was calculated using (one site binding competition analysis) GraphPad Prism5 as a measure of receptor affinity.

In order of rising IC50:
1. B5  0.082 nM
2. B6  0.163 nM
3. B2  0.172 nM
4. B3  0.179 nM
5. B1  0.387 nM
6. B7  0.453 nM
7. B4  0.88 nM
8. B8  0.992 nM
